From patent publication US20110150894A1

Target: activated β1 integrin on bovine capillary endothelial (CE) cells (bovine) (UniProt P53712)
Assay: cell-based or functional assay

Chain of activated β1 integrin on bovine capillary endothelial (CE) cells (bovine) (P53712 21-798): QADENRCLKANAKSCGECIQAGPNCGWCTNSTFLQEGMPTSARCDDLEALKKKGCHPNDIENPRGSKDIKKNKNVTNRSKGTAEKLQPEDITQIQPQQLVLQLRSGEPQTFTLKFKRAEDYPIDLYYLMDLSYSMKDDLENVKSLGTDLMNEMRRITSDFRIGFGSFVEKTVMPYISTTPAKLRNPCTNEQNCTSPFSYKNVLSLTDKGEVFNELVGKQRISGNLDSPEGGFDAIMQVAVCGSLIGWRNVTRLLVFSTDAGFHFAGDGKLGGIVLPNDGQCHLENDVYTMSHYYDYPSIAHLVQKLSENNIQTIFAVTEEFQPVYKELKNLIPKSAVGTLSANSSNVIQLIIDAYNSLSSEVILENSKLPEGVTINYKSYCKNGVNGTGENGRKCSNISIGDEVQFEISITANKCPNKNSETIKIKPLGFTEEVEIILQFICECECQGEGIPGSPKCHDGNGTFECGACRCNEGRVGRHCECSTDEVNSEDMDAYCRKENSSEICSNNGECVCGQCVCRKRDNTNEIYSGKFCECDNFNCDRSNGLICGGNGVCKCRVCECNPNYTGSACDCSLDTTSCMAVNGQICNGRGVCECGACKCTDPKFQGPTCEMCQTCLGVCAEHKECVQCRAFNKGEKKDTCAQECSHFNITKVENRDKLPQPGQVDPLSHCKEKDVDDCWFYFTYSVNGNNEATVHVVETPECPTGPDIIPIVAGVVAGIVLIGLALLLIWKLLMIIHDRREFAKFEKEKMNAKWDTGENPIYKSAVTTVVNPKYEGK

decrease in strain-induced cell realignment: 70%
Substance: function-blocking anti-β1 integrin (P5D2) antibody
